Data: patent US12129308 (Merck KGaA, dated 2024)

B1: C010100101 (VHH)
VHH: EVQLVESGGGLVQPGGSLRLSCAASGFTLAYYSIGWFRQAPGKEREGVSCISSGIDGSTYYADSVKGRFTISRDNAKNTMYLQMNNLKPEDTGVYYCAADPSHYYSEYDCGYYGMDYWGKGTLVTVSS
B2: C010100689 (bispecific antibody)
chain: EVQLVESGGGLVQPGGSLRLSCAASGFAFSAAYMSWVRQAPGKGLEWVSSISDDGSKTYYADSVKGRFTISRDNSKNTVYLQMNSLRPEDTAVYYCNTGYGATTTRPGRYWGQGTLVTVSSGGGGSGGGGSGGGGSGGGGSGGGGSGGGGSGGGGSEVQLVESGGGLVQPGGSLRLSCAASGSTFIINVVRWYRRAPGKQRELVATISSGGNANYVDSVRGRFTISRDNSKNTVYLQMNSLRPEDTAVYYCNVPTTHYGGVYYGPYWGQGTLVTVSS
B3: C010100280 (VHH)
VHH: EVQLVESGGGLVQPGGSLRLSCAASGFAFSAAYMSWVRQAPGKGLEWVSSISDDGSKTYYADSVKGRFTISRDNSKNTVYLQMNSLRPEDTAVYYCNTGYGATTTRPGRYWGQGTLVTVSS
B4: C010100692 (bispecific antibody)
chain: EVQLVESGGGLVQPGGSLRLSCAASGFAFSAAYMSWVRQAPGKGLEWVSSISDDGSKTYYADSVKGRFTISRDNSKNTVYLQMNSLRPEDTAVYYCNTGYGATTTRPGRYWGQGTLVTVSSGGGGSGGGGSGGGGSGGGGSGGGGSGGGGSGGGGSEVQLVESGGGLVQPGGSLRLSCAASGRTFSSYTMGWFRQAPGKEREFVAAISWSGGRTYYADSVKGRFTISRDNSKNTVYLQMNSLRPEDTAVYYCAAYRRRRASSNRGLWDYWGQGTLVTVSS
B5: C010100700 (bispecific antibody)
chain: EVQLVESGGGLVQPGGSLRLSCAASGRTFSSYAMGWFRQAPGKEREFVAAISWSGGSTYYADSVKGRFTISRDNSKNTVYLQMNSLRPEDTAVYYCTAALAVYGPSRYRYGPVGEYQYWGQGTLVTVSSGGGGSGGGGSGGGGSGGGGSGGGGSGGGGSGGGGSEVQLVESGGGSVQPGGSLRLSCAASGSTFSRYSMNWYRQAPGKQREFVAGISVGRITNYAVSVRGRFTISRDNSEGTGYLQMNSLRPEDTAVYYCNAGGLQGYWGLGTLVTVSSGGGGSGGGGSGGGGSGGGGSGGGGSGGGGSGGGGSEVQLVESGGGLVQPGGSLRLSCAASGSTFIINVVRWYRRAPGKQRELVATISSGGNANYVDSVRGRFTISRDNSKNTVYLQMNSLRPEDTAVYYCNVPTTHYGGVYYGPYWGQGTLVTVSS
B6: C010100696 (bispecific antibody)
chain: EVQLVESGGGLVQPGGSLRLSCAASGRTFSSYAMGWFRQAPGKEREFVAAISWSGGSTYYADSVKGRFTISRDNSKNTVYLQMNSLRPEDTAVYYCTAALAVYGPSRYRYGPVGEYQYWGQGTLVTVSSGGGGSGGGGSGGGGSGGGGSGGGGSGGGGSGGGGSEVQLVESGGGSVQPGGSLRLSCAASGSTFSRYSMNWYRQAPGKQREFVAGISVGRITNYAVSVRGRFTISRDNSEGTGYLQMNSLRPEDTAVYYCNAGGLQGYWGLGTLVTVSSGGGGSGGGGSGGGGSGGGGSGGGGSGGGGSGGGGSEVQLVESGGGLVQPGGSLRLSCAASGRTFSSYTMGWFRQAPGKEREFVAAISWSGGRTYYADSVKGRFTISRDNSKNTVYLQMNSLRPEDTAVYYCAAYRRRRASSNRGLWDYWGQGTLVTVSS
B7: C010100687 (bispecific antibody)
chain: EVQLVESGGGLVQPGGSLRLSCAASGFTLAYYSIGWFRQAPGKEREGVSCISSGIDGSTYYADSVKGRFTISRDNAKNTMYLQMNNLKPEDTGVYYCAADPSHYYSEYDCGYYGMDYWGKGTLVTVSSGGGGSGGGGSGGGGSGGGGSGGGGSGGGGSGGGGSEVQLVESGGGLVQPGGSLRLSCAASGSTFIINVVRWYRRAPGKQRELVATISSGGNANYVDSVRGRFTISRDNSKNTVYLQMNSLRPEDTAVYYCNVPTTHYGGVYYGPYWGQGTLVTVSS

Target: activated human MMP13 (human, UniProt P45452 104-471)
Test: cell-based or functional assay

Compared with B1, B2 is 2.1-fold lower in “potency, human fluorogenic peptide assay” value: 3.92 nM for the first, 1.91 nM for the second.

B3 and B4 are within 1.5-fold of each other in “potency, human fluorogenic peptide assay” value: 1.01 nM for the first, 0.828 nM for the second.

Going from B5 to B6, the “potency, human fluorogenic peptide assay” value rises from 0.0318 nM to 0.107 nM (3.4-fold).

In the case of B7, the “potency, human fluorogenic peptide assay” value is reported as 1.57 nM.
